What was measured:
[1] = biological target: T1, myotilin (full length, 498 residues) (human, UniProt Q9UBF9 1-498); test: yeast two-hybrid
T1 construct: In the yeast two-hybrid assay, full-length myotilin was expressed as a bait (EG202) or prey (JG4-5) fusion protein; In Western blots and staining it was the endogenous muscle protein; also called full-length myotilin
T1 sequence: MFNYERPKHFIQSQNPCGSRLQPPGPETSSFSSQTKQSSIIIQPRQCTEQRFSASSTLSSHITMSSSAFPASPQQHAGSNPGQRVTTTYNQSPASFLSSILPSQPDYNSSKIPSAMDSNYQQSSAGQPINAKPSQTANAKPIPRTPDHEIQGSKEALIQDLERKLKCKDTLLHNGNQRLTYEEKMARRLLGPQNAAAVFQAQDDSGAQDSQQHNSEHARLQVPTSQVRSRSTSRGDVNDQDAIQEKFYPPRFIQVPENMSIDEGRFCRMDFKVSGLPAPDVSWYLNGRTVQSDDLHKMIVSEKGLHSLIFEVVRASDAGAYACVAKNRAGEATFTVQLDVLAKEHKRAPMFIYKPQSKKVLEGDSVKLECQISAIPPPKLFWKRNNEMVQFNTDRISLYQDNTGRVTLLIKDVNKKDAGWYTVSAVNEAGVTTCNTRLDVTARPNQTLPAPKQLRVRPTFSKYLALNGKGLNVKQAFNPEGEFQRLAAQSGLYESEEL
Procedure: (§1) The COOH-terminal construct of myotilin was subcloned from a partial cDNA sequence obtained from the skeletal muscle library screen. The authentity of the constructs was verified by sequencing. The genotype of the S. cerevisiae strain BOY1, kindly provided by P. Ljungdahl, Ludwig Institute for Cancer Research, Stockholm, Sweden, is MATαhis3 trp1 leu2::6LexAop-LEU2 URA3::8LexAop-Gal1-LacZ. Boy1 mating type a was made using the YCPHO CUT4 plasmid. Yeast strains were grown at 30° C. in rich medium or in synthetic minimal medium with appropriate amino acid supplements. Bait and prey constructs were transformed into BOY1-yeast of both a and a mating type using the TRAFO protocol and plated on selection plates. Clones were grown to late logarithmic phase in selective medium. For analysis of fusion protein expression, yeast cells from 1 ml of overnight culture were lysed in reducing Laemmli sample buffer, the samples were boiled and analyzed by SDS-PAGE and immunoblotting. Baits and preys were grown on selection plates, replica plated together on rich media plates for mating overnight and replica plated on double (tryptophane and histidine) or triple (tryptophane, histidine and leucine) selection with or without 5-bromo-4-chloro-3-indolyl-β-D-galactopyranoside (X-gal)(Boehringer) for selection of interactions.

[2] = biological target: T2, spectrin-like repeats R1-R4 (residues 267-749) of chicken smooth muscle α-actinin (chicken, UniProt P05094 267-749); test: yeast two-hybrid
T2 construct: range 267-749; Expressed as a bait (EG202) or prey (JG4-5) fusion protein in the yeast two-hybrid assay; also called α-actinin (R1-R4)
T2 sequence (P05094 267-749 limits assumed): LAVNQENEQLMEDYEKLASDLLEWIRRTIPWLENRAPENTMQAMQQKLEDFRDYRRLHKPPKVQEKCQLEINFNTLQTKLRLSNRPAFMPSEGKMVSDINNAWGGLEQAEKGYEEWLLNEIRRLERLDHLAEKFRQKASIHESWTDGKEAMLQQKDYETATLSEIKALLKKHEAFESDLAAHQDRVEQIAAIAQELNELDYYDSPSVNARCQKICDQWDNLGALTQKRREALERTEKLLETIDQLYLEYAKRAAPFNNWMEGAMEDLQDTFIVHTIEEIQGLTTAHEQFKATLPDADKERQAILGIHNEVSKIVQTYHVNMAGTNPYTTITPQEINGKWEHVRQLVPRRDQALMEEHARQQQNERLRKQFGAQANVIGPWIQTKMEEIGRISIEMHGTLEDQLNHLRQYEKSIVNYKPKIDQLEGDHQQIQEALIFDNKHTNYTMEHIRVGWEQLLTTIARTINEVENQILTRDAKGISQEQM
Procedure: as §1

binding result [1]: binds
binding result [2]: no binding
B1: myotilin215-498 (other)
chain: SEHARLQVPTSQVRSRSTSRGDVNDQDAIQEKFYPPRFIQVPENMSIDEGRFCRMDFKVSGLPAPDVSWYLNGRTVQSDDLHKMIVSEKGLHSLIFEVVRASDAGAYACVAKNRAGEATFTVQLDVLAKEHKRAPMFIYKPQSKKVLEGDSVKLECQISAIPPPKLFWKRNNEMVQFNTDRISLYQDNTGRVTLLIKDVNKKDAGWYTVSAVNEAGVTTCNTRLDVTARPNQTLPAPKQLRVRPTFSKYLALNGKGLNVKQAFNPEGEFQRLAAQSGLYESEEL
notes: Expressed in the yeast two-hybrid assay as a prey fusion protein in JG4-5; it could not be expressed as a bait; also called NH2-terminal deletion construct containing the Ig-domains
